Test results as given in patent publication US20250250330A1 (REVOPSIS THERAPEUTICS, published 2025).

Target: T1, rhVEGF-C (AcroBio_VEC-H4225) (human, UniProt P49767 103-227, limits assumed)
T1 construct: domain: PDGF domain; Bought protein; not shown: His tag
T1 sequence (looked up): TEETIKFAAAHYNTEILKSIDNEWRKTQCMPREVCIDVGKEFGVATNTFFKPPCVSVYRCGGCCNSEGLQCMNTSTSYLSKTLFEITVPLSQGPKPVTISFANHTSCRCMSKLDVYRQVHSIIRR
Assay: ELISA: rhVEGF-C_AcroBio coated at 1 ug/mL, RO-101_Sample 1 titrated, detected with anti-human IgG Fc-gamma-HRP
Protocol: Different target proteins were used to coat Corning 9017 medium binding plates at 1 μg/mL and 100 μl per well. Donkey anti-human IgG Fcγ-HRP was used for detection. OD450 nm readings were measured by Victor 3.

B1: RO-101 VEGF/ANG-2 bispecific surrobody (bispecific antibody, human IgG1, L234A L235A)
heavy 1: not shown
heavy 2: EVQLVESGGGLVKPGGSLRLSCAASGFTFSSYGMHWVRQAPGKGLEWVAGISADSGDKNYADSVKGRFTISRDNAKNSLYLQMNSLRAEDTAVYYCAKEFISWIYTFDYLDYWGQGTLVTVSSASTKGPSVFPLAPSSKSTSGGTAALGCLVKDYFPEPVTVSWNSGALTSGVHTFPAVLQSSGLYSLSSVVTVPSSSLGTQTYICNVNHKPSNTKVDKKVEPKSCDKTHTCPPCPAPEAAGGPSVFLFPPKPKDTLMISRTPEVTCVVVDVSHEDPEVKFNWYVDGVEVHNAKTKPREEQYNSTYRVVSVLTVLHQDWLNGKEYKCKVSNKALPAPIEKTISKAKGQPREPQVCTLPPSRDELTKNQVSLSCAVKGFYPSDIAVEWESNGQPENNYKTTPPVLDSDGSFFLVSKLTVDKSRWQQGNVFSCSVMHEALHNHYTQKSLSLSPG
light: QPVLHQPPAMSSALGTTIRLTCTLRNDHDIGVYSVYWYQQRPGHPPRFLLRYFSQSDKSQGPQVPPRFSGSKDVARNRGYLSISELQPEDEAMYYCAMGARSSVTHVFGSGTQLTVLSQPKATPSVTLFPPSSEELQANKATLVCLMNDFYPGILTVTWKADGTPITQGVEMTTPSKQSNNKYAASSYLSLTPEQWRSRRSYSCQVMHEGSTVEKTVAPAECS
notes: Format SgG1; also called Sample 1
B1: no binding (tested: 100 nM (Log(nM) 2)).
